Five molecules from PMC13429012 (Structure (London, England : 1993), 2016) can be followed below.

One assay concerns the target Rvb2(E166K) (Saccharomyces cerevisiae, UniProt Q12464 1-471, E166K). The assay is described as follows: SEC. In general terms: In gel filtration, larger molecules generally elute earlier.
A further assay addresses Rvb2 (Saccharomyces cerevisiae, UniProt Q12464 1-471). The assay is described as follows: SEC.

Rvb2, sequence (Q12464 whole entry): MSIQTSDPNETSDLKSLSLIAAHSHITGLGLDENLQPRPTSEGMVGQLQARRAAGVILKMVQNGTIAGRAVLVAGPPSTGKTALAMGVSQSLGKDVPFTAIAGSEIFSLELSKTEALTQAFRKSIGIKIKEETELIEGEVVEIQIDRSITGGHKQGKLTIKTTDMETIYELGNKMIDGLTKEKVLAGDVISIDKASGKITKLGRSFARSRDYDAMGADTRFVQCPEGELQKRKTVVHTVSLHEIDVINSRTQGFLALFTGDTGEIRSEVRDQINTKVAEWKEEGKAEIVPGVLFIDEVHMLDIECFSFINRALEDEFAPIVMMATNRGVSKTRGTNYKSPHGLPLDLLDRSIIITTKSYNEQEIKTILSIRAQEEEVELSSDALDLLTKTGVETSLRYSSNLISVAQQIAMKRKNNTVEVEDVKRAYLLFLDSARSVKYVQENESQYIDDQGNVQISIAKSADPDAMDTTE
Rvb2(E166K), sequence (Q12464 whole entry E166K): as the sequence (Q12464 whole entry) above, with E166K counted along it

B1: Rvb1 (natural protein, Saccharomyces cerevisiae, UniProt Q03940 1-463, looked up)
chain: MVAISEVKENPGVNSSNSGAVTRTAAHTHIKGLGLDESGVAKRVEGGFVGQIEAREACGVIVDLIKAKKMSGRAILLAGGPSTGKTALALAISQELGPKVPFCPLVGSELYSVEVKKTETLMENFRRAIGLRIKETKEVYEGEVTELTPEDAENPLGGYGKTISHVIVGLKSAKGTKTLRLDPTIYESIQREKVSIGDVIYIEANTGAVKRVGRSDAYATEFDLETEEYVPLPKGEVHKKKEIVQDVTLHDLDVANARPQGGQDVISMMGQLLKPKKTEITEKLRQEVNKVVAKYIDQGVAELIPGVLFIDEVNMLDIEIFTYLNKALESNIAPVVVLASNRGMTTVRGTEDVISPHGVPPDLIDRLLIVRTLPYDKDEIRTIIERRATVERLQVESSALDLLATMGTETSLRYALQLLAPCGILAQTSNRKEIVVNDVNEAKLLFLDAKRSTKILETSANYL
Consider B1, for which the binding result in the assay with Rvb2(E166K) was “binds”.

B2: Rvb1(E150K) (natural protein, Saccharomyces cerevisiae, UniProt Q03940 1-463, looked up)
chain: MVAISEVKENPGVNSSNSGAVTRTAAHTHIKGLGLDESGVAKRVEGGFVGQIEAREACGVIVDLIKAKKMSGRAILLAGGPSTGKTALALAISQELGPKVPFCPLVGSELYSVEVKKTETLMENFRRAIGLRIKETKEVYEGEVTELTPKDAENPLGGYGKTISHVIVGLKSAKGTKTLRLDPTIYESIQREKVSIGDVIYIEANTGAVKRVGRSDAYATEFDLETEEYVPLPKGEVHKKKEIVQDVTLHDLDVANARPQGGQDVISMMGQLLKPKKTEITEKLRQEVNKVVAKYIDQGVAELIPGVLFIDEVNMLDIEIFTYLNKALESNIAPVVVLASNRGMTTVRGTEDVISPHGVPPDLIDRLLIVRTLPYDKDEIRTIIERRATVERLQVESSALDLLATMGTETSLRYALQLLAPCGILAQTSNRKEIVVNDVNEAKLLFLDAKRSTKILETSANYL
Consider B2, for which the binding result with Rvb2 was “binds”.

B3: Rvb1(K161E) (natural protein, Saccharomyces cerevisiae, UniProt Q03940 1-463, looked up)
chain: MVAISEVKENPGVNSSNSGAVTRTAAHTHIKGLGLDESGVAKRVEGGFVGQIEAREACGVIVDLIKAKKMSGRAILLAGGPSTGKTALALAISQELGPKVPFCPLVGSELYSVEVKKTETLMENFRRAIGLRIKETKEVYEGEVTELTPEDAENPLGGYGETISHVIVGLKSAKGTKTLRLDPTIYESIQREKVSIGDVIYIEANTGAVKRVGRSDAYATEFDLETEEYVPLPKGEVHKKKEIVQDVTLHDLDVANARPQGGQDVISMMGQLLKPKKTEITEKLRQEVNKVVAKYIDQGVAELIPGVLFIDEVNMLDIEIFTYLNKALESNIAPVVVLASNRGMTTVRGTEDVISPHGVPPDLIDRLLIVRTLPYDKDEIRTIIERRATVERLQVESSALDLLATMGTETSLRYALQLLAPCGILAQTSNRKEIVVNDVNEAKLLFLDAKRSTKILETSANYL
With B3, the binding result in the assay with Rvb2 is recorded as “binds”.

B4: Rvb1(E146R) (natural protein, Saccharomyces cerevisiae, UniProt Q03940 1-463, looked up)
chain: MVAISEVKENPGVNSSNSGAVTRTAAHTHIKGLGLDESGVAKRVEGGFVGQIEAREACGVIVDLIKAKKMSGRAILLAGGPSTGKTALALAISQELGPKVPFCPLVGSELYSVEVKKTETLMENFRRAIGLRIKETKEVYEGEVTRLTPEDAENPLGGYGKTISHVIVGLKSAKGTKTLRLDPTIYESIQREKVSIGDVIYIEANTGAVKRVGRSDAYATEFDLETEEYVPLPKGEVHKKKEIVQDVTLHDLDVANARPQGGQDVISMMGQLLKPKKTEITEKLRQEVNKVVAKYIDQGVAELIPGVLFIDEVNMLDIEIFTYLNKALESNIAPVVVLASNRGMTTVRGTEDVISPHGVPPDLIDRLLIVRTLPYDKDEIRTIIERRATVERLQVESSALDLLATMGTETSLRYALQLLAPCGILAQTSNRKEIVVNDVNEAKLLFLDAKRSTKILETSANYL
Turning to B4, the binding result with Rvb2 is on record as “binds”.

B5: Rvb1(R180E) (natural protein, Saccharomyces cerevisiae, UniProt Q03940 1-463, looked up)
chain: MVAISEVKENPGVNSSNSGAVTRTAAHTHIKGLGLDESGVAKRVEGGFVGQIEAREACGVIVDLIKAKKMSGRAILLAGGPSTGKTALALAISQELGPKVPFCPLVGSELYSVEVKKTETLMENFRRAIGLRIKETKEVYEGEVTELTPEDAENPLGGYGKTISHVIVGLKSAKGTKTLELDPTIYESIQREKVSIGDVIYIEANTGAVKRVGRSDAYATEFDLETEEYVPLPKGEVHKKKEIVQDVTLHDLDVANARPQGGQDVISMMGQLLKPKKTEITEKLRQEVNKVVAKYIDQGVAELIPGVLFIDEVNMLDIEIFTYLNKALESNIAPVVVLASNRGMTTVRGTEDVISPHGVPPDLIDRLLIVRTLPYDKDEIRTIIERRATVERLQVESSALDLLATMGTETSLRYALQLLAPCGILAQTSNRKEIVVNDVNEAKLLFLDAKRSTKILETSANYL
Take B5: the binding result in the assay with Rvb2 is “binds”.
